Experimental data: patent publication US10428140B2, “Anti-EphA4 antibody” (EISAI R&D MANAGEMENT CO., LTD., priority 2015, dated 2019)
Positions count from the first letter of the chain named.

T1: human EphB6 (Homo sapiens, UniProt O15197)
T1 construct: a protein of the extracellular region of each human Eph receptor fused with the SEAP protein and the His tag; made in house; host or cells: Expi293F cells
T1 sequence (O15197 32-594 limits assumed): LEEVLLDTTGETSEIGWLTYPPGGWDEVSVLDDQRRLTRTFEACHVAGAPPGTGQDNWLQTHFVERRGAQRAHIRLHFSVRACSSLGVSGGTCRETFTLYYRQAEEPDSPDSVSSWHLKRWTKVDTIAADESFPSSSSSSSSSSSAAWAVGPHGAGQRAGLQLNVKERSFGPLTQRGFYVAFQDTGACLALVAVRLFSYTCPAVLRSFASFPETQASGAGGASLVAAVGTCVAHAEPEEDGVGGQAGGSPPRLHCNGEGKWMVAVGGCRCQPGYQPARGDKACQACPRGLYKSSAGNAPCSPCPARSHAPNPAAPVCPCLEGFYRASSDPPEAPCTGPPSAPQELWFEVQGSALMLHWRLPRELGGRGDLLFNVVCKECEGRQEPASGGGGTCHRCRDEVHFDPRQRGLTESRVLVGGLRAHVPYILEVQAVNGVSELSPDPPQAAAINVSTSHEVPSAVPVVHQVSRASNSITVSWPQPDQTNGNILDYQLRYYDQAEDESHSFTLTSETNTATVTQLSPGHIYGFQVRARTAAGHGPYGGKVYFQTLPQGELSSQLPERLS

T2: human EphA1 (Homo sapiens, UniProt P21709)
T2 construct: a protein of the extracellular region of each human Eph receptor fused with the SEAP protein and the His tag; made in house; host or cells: Expi293F cells (culture supernatant)
T2 sequence (P21709 26-547 limits assumed): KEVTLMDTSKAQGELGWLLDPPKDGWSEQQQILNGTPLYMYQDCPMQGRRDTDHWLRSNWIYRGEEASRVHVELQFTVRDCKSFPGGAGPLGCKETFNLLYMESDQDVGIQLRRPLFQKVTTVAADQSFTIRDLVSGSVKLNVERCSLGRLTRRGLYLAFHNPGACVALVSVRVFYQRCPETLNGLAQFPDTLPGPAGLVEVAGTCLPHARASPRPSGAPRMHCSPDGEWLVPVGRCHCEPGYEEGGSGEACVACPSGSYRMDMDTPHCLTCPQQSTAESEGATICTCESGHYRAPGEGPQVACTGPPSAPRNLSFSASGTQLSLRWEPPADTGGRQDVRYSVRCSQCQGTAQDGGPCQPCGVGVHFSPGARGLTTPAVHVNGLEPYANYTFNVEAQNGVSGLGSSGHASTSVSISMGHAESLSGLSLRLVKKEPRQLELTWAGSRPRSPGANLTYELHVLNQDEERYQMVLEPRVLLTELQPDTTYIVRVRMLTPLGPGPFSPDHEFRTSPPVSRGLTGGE

T3: human EphB4 (Homo sapiens, UniProt P54760)
T3 construct: a protein of the extracellular region of each human Eph receptor fused with the SEAP protein and the His tag; made in house; host or cells: Expi293F cells
T3 sequence (P54760 16-539 limits assumed): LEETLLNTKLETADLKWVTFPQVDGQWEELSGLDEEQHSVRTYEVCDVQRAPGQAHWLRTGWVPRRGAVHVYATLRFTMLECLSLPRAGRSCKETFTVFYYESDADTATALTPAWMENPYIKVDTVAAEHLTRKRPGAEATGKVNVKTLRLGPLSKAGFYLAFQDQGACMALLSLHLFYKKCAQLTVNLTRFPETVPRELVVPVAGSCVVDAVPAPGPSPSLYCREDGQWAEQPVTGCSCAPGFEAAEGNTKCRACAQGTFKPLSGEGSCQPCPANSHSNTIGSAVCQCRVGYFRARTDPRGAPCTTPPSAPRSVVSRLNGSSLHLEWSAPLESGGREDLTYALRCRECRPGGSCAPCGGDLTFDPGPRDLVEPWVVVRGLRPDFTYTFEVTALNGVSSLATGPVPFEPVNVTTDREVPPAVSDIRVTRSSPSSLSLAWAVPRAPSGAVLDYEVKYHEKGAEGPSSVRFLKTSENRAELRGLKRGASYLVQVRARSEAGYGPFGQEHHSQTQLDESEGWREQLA

B1: 69 (antibody, V domains shown)
VH: QIQLVQSGSELKKPGASVKVSCKASGYTFTDYSMHWVRQAPGQGLKWMGWINTETGEPTYADDFKGRFVFSLDTSVSTAYLQISSLKAEDTAVYYCARIPLYYYGSRYWYFDVWGQGTTVTVSS
VL: DIQMTQSPSSLSASVGDRVTITCRASENIYRNLAWYQQKPGKAPKLLVYAATNLADGVPSRFSGSGSGTDYTLTISSLQPEDFATYYCQHFWGTPWTFGQGTKVEIK
modifications: synthetic humanized antibody heavy chain variable region sequence; synthetic humanized antibody light chain variable region sequence
B2: 87 (antibody, V domains shown)
VL: B1 VL with K45Q, V48L
VH: B1 VH with I2V, K46E, D62Q, D63G, K65T
modifications: constant regions without entry; synthetic humanized antibody light chain variable region sequence; synthetic humanized antibody heavy chain variable region sequence
B3: 86 (antibody, V domains shown)
VL: B1 VL with V48L, P80S
VH: B1 VH
modifications: constant regions without entry; synthetic humanized antibody light chain variable region sequence; synthetic humanized antibody heavy chain variable region sequence
B4: 88 (antibody, V domains shown)
VL: B1 VL with K45Q, V48L
VH: B1 VH with I2V, D62Q, D63G, K65T
modifications: constant regions without entry; synthetic humanized antibody light chain variable region sequence; synthetic humanized antibody heavy chain variable region sequence
B5: 85 (antibody, V domains shown)
VL: B1 VL with V48L, P80S
VH: B1 VH with I2V
modifications: constant regions without entry; synthetic humanized antibody light chain variable region sequence; synthetic humanized antibody heavy chain variable region sequence
B6: 84 (antibody, V domains shown)
VL: B1 VL with V48L, P80S
VH: B1 VH with I2V, K46E
modifications: constant regions without entry; synthetic humanized antibody light chain variable region sequence; synthetic humanized antibody heavy chain variable region sequence
B7: 82 (antibody, V domains shown)
VL: B1 VL with V48L, P80S
VH: B1 VH with I2V, D62Q, D63G, K65T
modifications: constant regions without entry; synthetic humanized antibody light chain variable region sequence; synthetic humanized antibody heavy chain variable region sequence
B8: 81 (antibody, V domains shown)
VL: B1 VL with V48L, P80S
VH: B1 VH with I2V, K46E, D62Q, D63G, K65T
modifications: constant regions without entry; synthetic humanized antibody light chain variable region sequence; synthetic humanized antibody heavy chain variable region sequence
B9: 83 (antibody, V domains shown)
VL: B1 VL with V48L, P80S
VH: B1 VH with D62Q, D63G, K65T
modifications: constant regions without entry; synthetic humanized antibody light chain variable region sequence; synthetic humanized antibody heavy chain variable region sequence
B10: 90 (antibody, V domains shown)
VL: B1 VL with K45Q, V48L
VH: B1 VH with I2V, K46E
modifications: constant regions without entry; synthetic humanized antibody light chain variable region sequence; synthetic humanized antibody heavy chain variable region sequence
B11: 89 (antibody, V domains shown)
VL: B1 VL with K45Q, V48L
VH: B1 VH with D62Q, D63G, K65T
modifications: constant regions without entry; synthetic humanized antibody light chain variable region sequence; synthetic humanized antibody heavy chain variable region sequence

Assays:
Assay in all cases: Selectivity ELISA of humanized antibodies for human Eph receptor
Format in all cases: binding
Details in all cases: coated protein 1 nM
human EphB6 = target: T1, human EphB6
Summary of the method: (§1)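 Capture ELISA: anti-6-His coat, 1% BlockAce block, Eph ECD-SEAP-His (1 nM final, Expi293F supernatant) 1 h RT, humanized Ab 1 h RT, HRP anti-IgG 1 h RT, TMB, H2SO4 stop, A450.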

human EphA1 = target: T2, human EphA1
Summary of the method: as §1

human EphB4 = target: T3, human EphB4
Summary of the method: as §1

Molecule | hEphB6-SEAP-: absorbance at 450 nm, percentage with respect to hEphA4-SEAP-His as 100% (human EphB6) | hEphA1-SEAP-: absorbance at 450 nm, percentage with respect to hEphA4-SEAP-His as 100% (human EphA1) | hEphB4-SEAP-: absorbance at 450 nm, percentage with respect to hEphA4-SEAP-His as 100% (human EphB4)
B1 | 5.6% | 5.7% | 5.5%
B2 | 5.3% | 5.3% | 5.5%
B3 | 5.7% | 5.9% | 5.8%
B4 | 6.1% | 5.8% | 6.1%
B5 | 5.2% | 5.0% | 5.2%
B6 | 4.9% | 5.2% | 5.4%
B7 | 5.5% | 5.4% | 5.7%
B8 | 5.0% | 4.4% | 5.0%
B9 | 5.8% | 5.7% | 5.7%
B10 | 5.2% | 5.1% | 5.0%
B11 | 4.8% | 5.5% | 5.8%
